Data: the supplement of paper PMC7877785
± gives the uncertainty stated by the source.

Assay: self-splicing fitness, log relative to wild type (ln ratio); higher = more splicing; Tetrahymena group I intron in knt gene, E. coli kanamycin selection, DiMSum; sequences stand for … in CUCUCU…GGAGGGAAAAGUUAUCAGGCAUGCACCUGGUAGCUAGUCUUUAAACCAAUAGAUUGCAUCGGUUUAAAAGGCAAGACCGUCAAAUUGCGGGAAAGGGGUCAACAGCCGUUCAGUACCAAGUCUCAGGGGAAACUUUGAGAUGGCCUUGCAAAGGGUAUGGUAAUAAGCUGACGGACAUGGUCCUAACCACGCAGCCAAGUCCUAAGUCAACAGAUCUUCUGUUGAUAUGGAUGCAGUUCACAGACUAAAUGUCGGUCGGGGAAGAUGUAUUCUUCUCAUAAGAUAUAGUCGGACCUCUCCUUAAUGGGAGCUAGCGGAUGAAGUGAUGCAACACUGGAGCCGCUGGGAACUAAUUUGUAUGCGAAAGUAUAUUGAUUAGUUUUGGAGUACUCGUGGUCG
In short: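 The eight P1ex-region nucleotides of an intron in the knt kanamycin-resistance gene on pET-22b(+) were all randomised and the library put into E. coli BL21(DE3). Six replicate transformations were grown overnight at 37°C or 30°C on LB agar with or without 25 μg/mL kanamycin, together with 100 μg/mL carbenicillin, 50 μM IPTG and 0.2% rhamnose. Colonies were pooled and amplicon-sequenced on an Illumina HiSeq 2500. Fitness from DiMSum is the error-weighted combination of wild-type-normalised replicate fold changes, kanamycin over none.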

Sequence	self-splicing fitness (ln) (30 °C)	self-splicing fitness (ln) (37 °C)
GCGCAGCAAUAUUACGCUCA	-0.576 ± 0.14	0.238 ± 0.16
GCGCAGCAAUAUUACGCUUC	-1.97 ± 0.24	-0.419 ± 0.15
GCGCAGCAAUAUUACGGCAA	-0.734 ± 0.14	-0.814 ± 0.14
GCGCAGCAAUAUUACGGGUA	-2.4 ± 0.13	-1.59 ± 0.1
GCGCAGCAAUAUUACGGUUG	-2.53 ± 0.1	-3.34 ± 0.19
GCGCAGCAAUAUUACGUAAA	0.442 ± 0.089	0.263 ± 0.12
GCGCAGCAAUAUUACGUACA	-1.49 ± 0.084	-0.256 ± 0.088
GCGCAGCAAUAUUACGUAGG	-0.838 ± 0.061	-0.551 ± 0.086
GCGCAGCAAUAUUACGUCCC	-1.14 ± 0.3	0.234 ± 0.2
GCGCAGCAAUAUUACGUCUA	-0.763 ± 0.07	-0.321 ± 0.079
GCGCAGCAAUAUUACGUUAG	-4.26 ± 0.2	-2.26 ± 0.18
GCGGAGCAAUAUUACGAACC	-1.32 ± 0.35	
GCGGAGCAAUAUUACGAGAU	-2.21 ± 0.27	-1.94 ± 0.4
GCGGAGCAAUAUUACGAGCG	-1.01 ± 0.17	0.152 ± 0.35
GCGGAGCAAUAUUACGAUCA	-2.43 ± 0.41	-1.56 ± 0.32
GCGGAGCAAUAUUACGAUCG	-0.357 ± 0.25	-1.12 ± 0.3
GCGGAGCAAUAUUACGAUGG	-1.16 ± 0.26	-1.02 ± 0.32
GCGGAGCAAUAUUACGAUUC	-1.32 ± 0.12	-1.09 ± 0.15
GCGGAGCAAUAUUACGCAUC	-4.01 ± 0.27	-1.81 ± 0.35
GCGGAGCAAUAUUACGCCGU	-1.4 ± 0.28	
GCGGAGCAAUAUUACGCCUC	-3.43 ± 0.38	-1.06 ± 0.36
GCGGAGCAAUAUUACGCGUC	-3.26 ± 0.18	-3.2 ± 0.25
GCGGAGCAAUAUUACGCUCG	-2.94 ± 0.43	
GCGGAGCAAUAUUACGGAGA	-2.07 ± 0.2	-1.71 ± 0.41
GCGGAGCAAUAUUACGGAUC	-0.472 ± 0.083	-0.528 ± 0.17
GCGGAGCAAUAUUACGGUAA	-3.29 ± 0.26	-2.7 ± 0.31
GCGGAGCAAUAUUACGGUAG	-2.77 ± 0.23	

Sequence	self-splicing fitness (ln) (30 °C)	self-splicing fitness (ln) (37 °C)
GCGGAGCAAUAUUACGGUAU	-3.38 ± 0.24	-2.95 ± 0.26
GCGGAGCAAUAUUACGGUGC	-3.56 ± 0.49	
GCGGAGCAAUAUUACGGUGU	-3.36 ± 0.23	-3.11 ± 0.35
GCGGAGCAAUAUUACGUAAG	-3.35 ± 0.33	-0.951 ± 0.19
GCGGAGCAAUAUUACGUCCA	-2.88 ± 0.33	-0.822 ± 0.32
GCGGAGCAAUAUUACGUCCG	-0.898 ± 0.32	-0.455 ± 0.25
GCGGAGCAAUAUUACGUGAU	-2.01 ± 0.47	-1.42 ± 0.3
GCGGAGCAAUAUUACGUUGA	-2.63 ± 0.32	-2.31 ± 0.32
GCGUAGCAAUAUUACGAGUA	-1.64 ± 0.16	-0.623 ± 0.13
GCGUAGCAAUAUUACGAGUG	-1.78 ± 0.15	-1.19 ± 0.21
GCGUAGCAAUAUUACGAUAC	-1.95 ± 0.12	-0.893 ± 0.12
GCGUAGCAAUAUUACGCACU	-3.02 ± 0.24	0.255 ± 0.2
GCGUAGCAAUAUUACGCUAA	-3.9 ± 0.27	-2.25 ± 0.21
GCGUAGCAAUAUUACGCUGA		-3.19 ± 0.3
GCGUAGCAAUAUUACGCUGU	-3.16 ± 0.28	
GCGUAGCAAUAUUACGCUUA		-2.06 ± 0.32
GCGUAGCAAUAUUACGGGGU	-3.95 ± 0.19	-1.86 ± 0.12
GCGUAGCAAUAUUACGGGUA	-1.56 ± 0.11	-0.91 ± 0.098
GCGUAGCAAUAUUACGGUCG	-0.963 ± 0.16	-1.07 ± 0.27
GCGUAGCAAUAUUACGGUGC	-3.73 ± 0.32	-2.95 ± 0.47
GCGUAGCAAUAUUACGGUUA	-0.359 ± 0.1	-0.119 ± 0.09
GCGUAGCAAUAUUACGUAAU		-0.693 ± 0.32
GCGUAGCAAUAUUACGUCCU	-1.47 ± 0.14	-0.8 ± 0.15
GCGUAGCAAUAUUACGUCGU	-2.13 ± 0.12	-2.04 ± 0.18
GCGUAGCAAUAUUACGUUAC	-2.56 ± 0.23	-2.37 ± 0.32
GCGUAGCAAUAUUACGUUCU	-2.08 ± 0.13	-1.38 ± 0.15
GCUAAGCAAUAUUACGAAGC	-3.24 ± 0.25	-0.413 ± 0.23

Sequence	self-splicing fitness (ln) (30 °C)	self-splicing fitness (ln) (37 °C)
GCUAAGCAAUAUUACGAAGU	-3.47 ± 0.17	-3.01 ± 0.34
GCUAAGCAAUAUUACGACGU	-0.0363 ± 0.17	0.155 ± 0.19
GCUAAGCAAUAUUACGACUU	-0.326 ± 0.09	-0.0273 ± 0.098
GCUAAGCAAUAUUACGAGGG	-2.18 ± 0.14	-1.64 ± 0.16
GCUAAGCAAUAUUACGAUCA	-1.29 ± 0.11	-0.823 ± 0.093
GCUAAGCAAUAUUACGAUCU	-0.886 ± 0.13	0.178 ± 0.14
GCUAAGCAAUAUUACGAUUU	-0.73 ± 0.065	0.0848 ± 0.075
GCUAAGCAAUAUUACGCACU	-0.54 ± 0.071	0.421 ± 0.11
GCUAAGCAAUAUUACGCCGG	-2.65 ± 0.2	-1.33 ± 0.19
GCUAAGCAAUAUUACGCUGC	-3.12 ± 0.34	
GCUAAGCAAUAUUACGCUUU	-3.06 ± 0.15	-1.71 ± 0.15
GCUAAGCAAUAUUACGGAAC	-1.46 ± 0.093	-0.743 ± 0.1
GCUAAGCAAUAUUACGGCCA	-0.635 ± 0.2	-1.58 ± 0.2
GCUAAGCAAUAUUACGGCUU	-0.732 ± 0.1	-0.973 ± 0.16
GCUAAGCAAUAUUACGGGAC	-2.81 ± 0.13	-1.53 ± 0.14
GCUAAGCAAUAUUACGGGCG	-0.341 ± 0.12	0.183 ± 0.14
GCUAAGCAAUAUUACGGGGU	-2.06 ± 0.18	-3.04 ± 0.25
GCUAAGCAAUAUUACGUCAU	-1.7 ± 0.095	0.727 ± 0.12
GCUAAGCAAUAUUACGUGAG	-0.321 ± 0.06	-0.28 ± 0.071
GCUAAGCAAUAUUACGUGCC	-3.59 ± 0.24	-2.35 ± 0.23
GCUAAGCAAUAUUACGUGCG	-1.07 ± 0.086	0.103 ± 0.1
GCUAAGCAAUAUUACGUGUU	-1.78 ± 0.072	-0.774 ± 0.093
GCUAAGCAAUAUUACGUUGC	-2.26 ± 0.46	-1.71 ± 0.38
GCUCAGCAAUAUUACGACAA	-1.6 ± 0.15	-1.42 ± 0.21
GCUCAGCAAUAUUACGAGUG	-1.21 ± 0.063	-0.148 ± 0.092
